For assay [1], the target named is T1, CsLinker α3 fragment (residues 142–207) (Chlorella sorokiniana UTEX1230).
T1 construct: CsLinker (CSI2_123000012064), Chlorella sorokiniana UTEX1230, residues 142–207: one whole repeat centred on predicted α-helix 3; residues numbered by their position in the full-length CsLinker; From the plasmid His-mEGFP-TEV-α3-TEV-MBP-His; also called single helix α3 fragment; source: E. coli BL21 (DE3), purified (IMAC, TEV cleavage, second IMAC, SEC); not shown: His6, N-terminal, cleaved; …
The assay is described as follows: SPR; Rubisco immobilised as bait, fragments as analyte (prey); Biacore T100/T200, 25 °C; analyte injected at 15 μl/min for 30 s, 360 s dissociation; fit of y = Bmax·x/(KD + x); apparent KD; triplicate. The following applies: both partners purified.

The target in assay [2] is T2, CsLinker α3–α4 fragment (residues 142–272) (Chlorella sorokiniana UTEX1230).
T2 construct: CsLinker (CSI2_123000012064), Chlorella sorokiniana UTEX1230, residues 142–272: two repeats with predicted α-helices 3 and 4; residues numbered by their position in the full-length CsLinker; From the plasmid His-mEGFP-TEV-α3–α4-TEV-MBP-His; also called α3–α4 double repeat fragment; source: E. coli BL21 (DE3), purified (IMAC, TEV cleavage, second IMAC, SEC); not shown: His6, N-terminal, cleaved; …
The description is as above. Conditions: both partners purified.

B1: Ulva mutabilis Rubisco (UmRubisco) (complex)
chain 1: GVKDYRLTYYTPDYQVKDTDILAAFRMTPQPGVPAEEAGAAVAAESSTGTWTTVWTDGLTSLDRYKGRCYDIEPLGEDDQYIAYIAYPLDLFEEGSVTNLFTSIVGNVFGFKALRALRLEDLRIPPAYVKTFQGPPHGIQVERDKLNKYGRGLLGCTIKPKLGLSAKNYGRAVYECLRGGLDFTKDDENVNSQPFMRWRDRFLFVAEAIYKSQSETGEVKGHYLNATAGTCEEMMERGQFAKDLGVPIVMHDYITGGFTANTTLAHFCRASGLLLHIHRAMHAVIDRQRNHGIHFRVLAKILRMSGGDHLHSGTVVGKLEGEREITLGFVDLMRDDYIEKDRSRGIYFTQDWVSLPGTMPVASGGIHVWHMPALVEIFGDDACLQFGGGTLGHPWGNAPGAAANRVALEACTQARNEGRDLASEGGDVIRAA
chain 2: MRVWTPHNNKMFETFSFLPPLSHGEIARQVDYIIANGWTSCLEFADSDCAYVQDKANIRFGNSASCNYYDNRYWTMWKLPMFGCTNPNEVLGEIDSCKRAFPESYIRLVAFDNIAQCQTIGFLVNRPPRSGDFQSPENRSVA
Take B1: the Kd in assay [1] was 162 µM; in assay [2], 1.56 µM.

(Values after article PMC11570498, “A promiscuous mechanism to phase separate eukaryotic carbon fixation in the green lineage” (Nature Plants, 2024).)
